Values belong to the molecule of their own block, whether it stands above or below them.
What was measured:
[1] = molecular target: Extracellular domain of CD98hc (CD98hc-ED), His-tagged (human) (UniProt P08195); experiment: MST; His-tagged CD98hc-ED (50 nM) labelled with RED-tris-NTA 2nd generation as target; Gal-8, Gal-8N or Gal-8C titrated 50 μM to 12.21 nM (1:1 dilution series); Monolith NT.115, room temperature, LED 60%, MST power medium; KD fit; three independent experiments
[2] = molecular target: T1, Extracellular domain of CD98hc (CD98hc-ED), His-tagged (human, UniProt P08195 105-529, N-glycosylated (glycosylated CD98hc-ED)); experiment: as above; conditions: both partners purified
T1 construct: CD98hc, human (cDNA from HeLa cells), extracellular domain; the printed primers encode an added start Met followed by RAPRCR, and end with RFPYAA (the C-terminus) followed by six His codons and a stop; His6 and its C-terminal position are read from the reverse primer; the text says only 'with a His-tag'; No signal peptide is encoded by the primers. 'Free CD98hc-ED' is this protein after PNGase F …
T1 sequence (looked up): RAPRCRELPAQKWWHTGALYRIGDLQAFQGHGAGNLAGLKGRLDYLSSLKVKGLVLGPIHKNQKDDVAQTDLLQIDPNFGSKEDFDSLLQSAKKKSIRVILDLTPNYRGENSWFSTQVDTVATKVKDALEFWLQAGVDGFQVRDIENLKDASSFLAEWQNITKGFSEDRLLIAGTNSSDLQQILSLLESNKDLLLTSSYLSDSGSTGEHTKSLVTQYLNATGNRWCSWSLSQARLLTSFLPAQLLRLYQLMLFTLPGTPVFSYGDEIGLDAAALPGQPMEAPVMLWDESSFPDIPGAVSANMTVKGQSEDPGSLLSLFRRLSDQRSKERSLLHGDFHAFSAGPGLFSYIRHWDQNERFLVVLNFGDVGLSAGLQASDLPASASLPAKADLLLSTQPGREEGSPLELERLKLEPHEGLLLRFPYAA

- Kd [1]: 1510 nM
Molecule: Recombinant Gal-8 (His-Gal-8) (from UniProt O00214 1-317) (natural protein)

- Kd [2]: 10700 ± 1690 nM
B1: Recombinant Gal-8C (His-Gal-8C) (domain or fragment, human, UniProt O00214 187-317, looked up)
chain: FAARLNTPMGPGRTVVVKGEVNANAKSFNVDLLAGKSKDIALHLNPRLNIKAFVRNSFLQESWGEEERNITSFPFSPGMYFEMIIYCDVREFKVAVNGVHSLEYKHRFKELSSIDTLEINGDIHLLEVRSW
notes: Galectin-8, human, C-terminal carbohydrate recognition domain (Gal-8C); also called C-terminal carbohydrate recognition domain of Gal-8; source: E. coli BL21 (DE3) pLysS, as previously described by Si et al. [9]

- Kd [2]: 220 ± 30 nM
B2: Recombinant Gal-8N (His-Gal-8N) (domain or fragment, human, UniProt O00214 1-152, looked up)
chain: MMLSLNNLQNIIYNPVIPFVGTIPDQLDPGTLIVIRGHVPSDADRFQVDLQNGSSMKPRADVAFHFNPRFKRAGCIVCNTLINEKWGREEITYDTPFKREKSFEIVIMVLKDKFQVAVNGKHTLLYGHRIGPEKIDTLGIYGKVNIHSIGFS
notes: Galectin-8, human, N-terminal carbohydrate recognition domain (Gal-8N); also called N-terminal carbohydrate recognition domain of Gal-8; source: E. coli BL21 (DE3) pLysS, as previously described by Si et al. [9]

— PMC12130729, “CD98hc, a novel of galectin-8 receptor, binds to galectin-8 in an N-glycosylation-dependent manner” (Acta Biochimica et Biophysica Sinica, 2025)
